The source of these data is FireProtDB (doi:10.1074/jbc.m005861200).

B1: Cytochrome c-551, P00099 (parent)
chain: MKPYALLSLLATGTLLAQGAWAEDPEVLFKNKGCVACHAIDTKMVGPAYKDVAAKFAGQAGAEAELAQRIKNGSQGVWGPIPMPPNAVSDDEAQTLAKWVLSQK

The variants in one data set derive from B1. To be noted: Pseudomonas aeruginosa (strain ATCC 15692 / DSM 22644 / CIP 104116 / JCM 14847 / LMG 12228 / 1C / PRS 101 / PAO1); pH 5; 25 °C; GdnHCl; DSC; Unknown; reversible: yes; structure 451C; whole UniProt chain shown.
Regarding MKPYALLSLLATGTLLAQGAWAEDPEVLAKNKGCMACHAIDTKMVGPAYKDVAAKYAGQAGAEAYLAQRIKNGSQGVWGPIPMPPNAVSDDEAQTLAKWILSQK, the “denaturant midpoint (higher = more stable)” value came to 4.39 M.

The same data set, now with this note: Pseudomonas aeruginosa (strain ATCC 15692 / DSM 22644 / CIP 104116 / JCM 14847 / LMG 12228 / 1C / PRS 101 / PAO1); pH 5; 47.3 °C; Thermal; DSC; Unknown; reversible: yes; structure 451C; whole UniProt chain shown.
As a reminder, the Tm is the temperature at the midpoint of the melting transition. Turning to MKPYALLSLLATGTLLAQGAWAEDPEVLAKNKGCMACHAIDTKMVGPAYKDVAAKYAGQAGAEAYLAQRIKNGSQGVWGPIPMPPNAVSDDEAQTLAKWILSQK, the Tm was 80.2 °C; the “change of melting temperature, mutant - wild type (higher = more stable)” value was determined as 32.9 °C; the “heat capacity change of unfolding” value was 1.07 kcal/mol/K.

Staying with this data set, now noted: Pseudomonas aeruginosa (strain ATCC 15692 / DSM 22644 / CIP 104116 / JCM 14847 / LMG 12228 / 1C / PRS 101 / PAO1); pH 5; Thermal; DSC; Unknown; reversible: yes; structure 451C; whole UniProt chain shown.
With MKPYALLSLLATGTLLAQGAWAEDPEVLAKNKGCMACHAIDTKMVGPAYKDVAAKYAGQAGAEAYLAQRIKNGSQGVWGPIPMPPNAVSDDEAQTLAKWILSQK, the Tm is 80.2 °C; the “change of melting temperature, mutant - wild type (higher = more stable)” value amounted to 32.9 °C; the “heat capacity change of unfolding” value came out at 1.07 kcal/mol/K; the “unfolding enthalpy (calorimetric)” value amounted to 46 kcal/mol.
